# The supplement of paper PMC7125110
# ± gives the standard error. Fewer inactive variants are shown than the library holds.
# B1: glmS ribozyme (parent)
# chain: AUAAAAGCGCCAGAACUACAGAAAUGUAGUUGACGAGGAGGAGGUUUAUCGAAUUUUCGGCGGAUGCCUCCAAA
# Variants of: B1
# Test: self-cleavage kobs at 10000 uM GlcN6P; higher = faster cleavage; RNA array
# Details: with glucosamine-6-phosphate
# Outline: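 kobs was derived by fitting per-tile medians to one- or two-exponential decays after normalising signals to baseline and to non-cleaving reference variants. Those signals came from barcoded ribozyme variants transcribed in situ by E. coli RNA polymerase on sequenced MiSeq chips, followed through a hybridised Cy3 probe at 37 °C and imaged over ~14 h. Glucosamine-6-phosphate (40 μM to 10 mM) in HEPES/KCl/Mg(OAc)2 buffer was flowed in. Weighted Michaelis–Menten fits across concentrations then gave kcat and KM.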
row,Variant,self-cleavage kobs at 10000 uM GlcN6P
1,G59A C68G C70U,< 1e-05 s⁻¹
2,U31A U47G A48G,3.62e-05 ± 1.3e-05 s⁻¹
3,U31C G41A G66A,0.00018 ± 2.8e-05 s⁻¹
4,G38C A42G A64G,< 1e-05 s⁻¹
5,G32C G38U A42C G43C A52C,< 1e-05 s⁻¹
6,G40A U65G C71U,0.0033 ± 0.00061 s⁻¹
7,A39U C67A C70U,0.00654 ± 0.0014 s⁻¹
8,U31A G32A A42G,0.000766 ± 0.00025 s⁻¹
9,A36G A53C C67A,< 1e-05 s⁻¹
10,U49C C50U U56C,< 1e-05 s⁻¹
11,A42G A48U U55G,0.000404 ± 8.1e-05 s⁻¹
12,A33U U45A U46G,0.000433 ± 5.7e-05 s⁻¹
13,A52C C68U C70U,3.87e-05 ± 1.7e-05 s⁻¹
14,A42C G44U G66U,< 1e-05 s⁻¹
15,G43C U45G A48U C50U C58U C67U,< 1e-05 s⁻¹
16,G40U A48G C70A,3.93e-05 ± 9.6e-06 s⁻¹
17,G41U C67G C68A,0.000314 ± 0.00012 s⁻¹
18,C58U C61U C71U,< 1e-05 s⁻¹
19,A33U G41C A52U A53C,< 1e-05 s⁻¹
20,U31A A39C U56G,0.00147 ± 0.0004 s⁻¹
21,G38U C50G C71A,9.8e-05 ± 1.9e-05 s⁻¹
22,U54G C61A,< 1e-05 s⁻¹
23,G43C U49C,< 1e-05 s⁻¹
24,G38U C50G U55G U57G,7.32e-05 ± 2e-05 s⁻¹
25,G38A G51A,< 1e-05 s⁻¹

row,Variant,self-cleavage kobs at 10000 uM GlcN6P
1,G43U C50U G63A,< 1e-05 s⁻¹
2,A33U U47A,9.99e-05 ± 1.7e-05 s⁻¹
3,C34A G66U C67G,< 1e-05 s⁻¹
4,G32U G41A A53G,0.000262 ± 6.5e-05 s⁻¹
5,G32A A42G A53G,0.00295 ± 0.00072 s⁻¹
6,U55A C58U U65C,< 1e-05 s⁻¹
7,G44C C70U C71A,< 1e-05 s⁻¹
8,A33G A36G A39U A53G,< 1e-05 s⁻¹
9,U49A C61A,< 1e-05 s⁻¹
10,A39U A52G C67G,0.00016 ± 3.6e-05 s⁻¹
11,G35C C50G A53C,3.34e-05 ± 8.6e-06 s⁻¹
12,U31A G32A G62U,< 1e-05 s⁻¹
13,G43A G51U G63C,< 1e-05 s⁻¹
14,U46A A48G,3.66e-05 ± 1.3e-05 s⁻¹
15,A53G C58U C70U,0.000123 ± 2.7e-05 s⁻¹
16,C50G U54C C71U,4.14e-05 ± 1.5e-05 s⁻¹
17,A36C A39U C67U,< 1e-05 s⁻¹
18,G35U U47C G51U,< 1e-05 s⁻¹
19,A39G G60C C70U,< 1e-05 s⁻¹
20,G44A U46G U54G,0.000373 ± 0.0001 s⁻¹
21,A53C U55G C67U,0.00164 ± 0.00038 s⁻¹
22,U54G G63C U65C C68G C71G,3.78e-05 ± 1.6e-05 s⁻¹
23,A33G C50U C58G C71U,< 1e-05 s⁻¹
24,A36U A39C U65C,< 1e-05 s⁻¹
25,A33C G44C G60A,< 1e-05 s⁻¹

row,Variant,self-cleavage kobs at 10000 uM GlcN6P
1,G32A U45G U47A,0.000614 ± 0.00014 s⁻¹
2,G32U U55A C58G,0.000755 ± 0.00011 s⁻¹
3,G38C C50A,< 1e-05 s⁻¹
4,G38C G44C A53U G62C,< 1e-05 s⁻¹
5,G40A C58A,7.56e-05 ± 1.6e-05 s⁻¹
6,U54A U57G,5.94e-05 ± 1.1e-05 s⁻¹
7,U54A G66A C68A,9.65e-05 ± 1.7e-05 s⁻¹
8,C58U G59A,< 1e-05 s⁻¹
9,U47G U54G G62U,< 1e-05 s⁻¹
10,U30G G35A G40C C68G,< 1e-05 s⁻¹
11,U49G C61G,< 1e-05 s⁻¹
12,U49G G60A C61G G62U,< 1e-05 s⁻¹
13,G35A U49G C61U,< 1e-05 s⁻¹
14,U31G G38U A53U,< 1e-05 s⁻¹
15,A36C U57A,< 1e-05 s⁻¹
16,G59C G63C C70A,< 1e-05 s⁻¹
17,G41U U69A,3.54e-05 ± 1.5e-05 s⁻¹
18,A33C C50A C67G C68G,7.88e-05 ± 2.1e-05 s⁻¹
19,A36U G59U G60C,< 1e-05 s⁻¹
20,U31A A36G U49G C50U C58A,< 1e-05 s⁻¹
21,A42G U49A C50G,< 1e-05 s⁻¹
22,C34A G43A U49G C70G,< 1e-05 s⁻¹
23,U56C G66A C71U,0.000503 ± 0.00011 s⁻¹
24,G37A U54A G66U,0.000359 ± 8.7e-05 s⁻¹
25,G37C A42C U57A,< 1e-05 s⁻¹

row,Variant,self-cleavage kobs at 10000 uM GlcN6P
1,U45G U57G,3.68e-05 ± 9e-06 s⁻¹
2,C50U C61U C67U,< 1e-05 s⁻¹
3,C34A G63U C70A,< 1e-05 s⁻¹
4,G44C U65G C67U,0.000247 ± 8.5e-05 s⁻¹
5,A39G A53C C71A,0.00202 ± 0.00063 s⁻¹
6,U65G G66U C70A,6.2e-05 ± 1.7e-05 s⁻¹
7,A33G G37C C50G C68A,0.00162 ± 0.00046 s⁻¹
8,G35C C50A G51A,< 1e-05 s⁻¹
9,C50U G60U C61A,< 1e-05 s⁻¹
10,C50A G59C C70U,< 1e-05 s⁻¹
11,G32C A36C G51C,< 1e-05 s⁻¹
12,U31G U54C C70G,0.000117 ± 2.3e-05 s⁻¹
13,G37A G44A,2.6e-05 ± 1.2e-05 s⁻¹
14,G32A U69G C71A,4.49e-05 ± 1.6e-05 s⁻¹
15,U31C U57C,5.52e-05 ± 1.3e-05 s⁻¹
16,U47A C67U C71U,0.000453 ± 0.00017 s⁻¹
17,U47A U54G U55A C70A,0.000105 ± 3e-05 s⁻¹
18,U30G G35U G43C,< 1e-05 s⁻¹
19,U30G A42U,3.53e-05 ± 8.7e-06 s⁻¹
20,G44U C58U G62U C68A,< 1e-05 s⁻¹
21,A42G C58G G66A,5.14e-05 ± 1.9e-05 s⁻¹
22,U56C A64C U65A,< 1e-05 s⁻¹
23,G32U A53G U65A,5.88e-05 ± 1.9e-05 s⁻¹
24,A36C G41U C50G G60U C61G,< 1e-05 s⁻¹
25,U31G A53G U69C,0.00324 ± 0.00093 s⁻¹

row,Variant,self-cleavage kobs at 10000 uM GlcN6P
1,G37A U45A C61U C67U,< 1e-05 s⁻¹
2,U31G A36U C67A C68G,6.42e-05 ± 1.5e-05 s⁻¹
3,A52U U65A,2.95e-05 ± 9.7e-06 s⁻¹
4,G32A A52G C70U,0.000145 ± 1.9e-05 s⁻¹
5,U31C G40U G66A,0.00025 ± 7.4e-05 s⁻¹
6,C58A G60C,< 1e-05 s⁻¹
7,G37A G40A C58U G66C,< 1e-05 s⁻¹
8,A52U A53C G62C,< 1e-05 s⁻¹
9,A33C G38A C58A,< 1e-05 s⁻¹
10,A48C C58A C61U,< 1e-05 s⁻¹
11,U54G G59U C71U,4.41e-05 ± 1.6e-05 s⁻¹
12,A33U G35C C71G,< 1e-05 s⁻¹
13,G32A G37C G40A,< 1e-05 s⁻¹
14,G41A C61A C68G,< 1e-05 s⁻¹
15,G41U A42U U55C C70G,0.000238 ± 4.7e-05 s⁻¹
16,U31C G38C U45A C50A C58U,< 1e-05 s⁻¹
17,A39U G66U C67A,0.00316 ± 0.00061 s⁻¹
18,G38A A42G U49A,< 1e-05 s⁻¹
19,A36C C61A,< 1e-05 s⁻¹
20,G38A U49A G66U,< 1e-05 s⁻¹
21,A39C U49A C61U C70G,< 1e-05 s⁻¹
22,U54C G66C,0.00113 ± 0.00015 s⁻¹
23,A39U G63U U65A,< 1e-05 s⁻¹
24,G43A C71G,< 1e-05 s⁻¹
